In assay [1] the test system is SK-N-BE(2)-M17 (M17) cells. Briefly: Rotenone toxicity in stably transfected cell lines, LDH release. In kind it is cell-based. To be noted: stable overexpression, 48 hours; for protection against rotenone toxicity (LDH release): rotenone at varying concentrations. The method, then:
Cell lines stably-transfected with either 14-3-3θ or empty vector were treated with varying concentrations of rotenone (0-25 μM) for 24 hours (FIG. 6A), 30 hours (FIG. 6B), or 48 hours (FIG. 6C). Cell death was assayed by LDH release into the culture media. LDH release into media was normalized to total LDH release for each well. […] Rater was blind to experimental condition. n=8 for each experimental condition. *p<0.05, ***p<0.001 (Bonferroni's multiple comparison test).
(§1) M17 cell lines stably-transfected with either a 14-3-3 isoform or empty vector were treated with varying concentrations of rotenone (0-25 μM) for 48 hours. Cell death was assayed by LDH release into the culture media. LDH release into media was normalized to total LDH release for each well. […] Results reflect two to three independent experiments with at least two replicates per experiment. *p<0.05, **p<0.01, ***p<0.001 (Bonferroni's multiple comparison test).
Additional studies were performed to evaluate the effect of 14-3-3 polypeptide isoforms in mammalian cells. In these studies, cDNA clones for the 14-3-3 polypeptide β, γ, ε, η, θ, and σ isoforms were subcloned into the mammalian expression vector pcDNA 3.1/V5/His (Invitrogen). The polypeptide expressed from this vector contains the particular 14-3-3 isoform with a V5 and a His6 tag at the C-terminal end. […] SK-N-BE(2)-M17 (M17) cells, a dopaminergic-producing human neuroblastoma cell line, were transfected with each isoform or empty vector using Superfect, and stably-transfected cells were selected for in the presence of G418.
The M17 14-3-3θ clones were examined for their resistance to rotenone (0-25 μM). M17 cell lines stably transfected with either 14-3-3θ or empty vector were treated with rotenone for 24 (FIG. 6A), 30 (FIG. 6B) or 48 hours (FIG. 6C). Cell death was assayed by […] (LDH) release into the culture media using the LDH assay kit from Roche. LDH release into media was normalized to total LDH release for each well. Results reflect three independent experiments with at least two replicates per experiment.
Stable M17 cell lines overexpressing these other isoforms were treated with rotenone at varying concentrations, and then cell death was assayed at 48 hours by LDH release. […]
Background: LDH leaks from cells whose membrane has failed.

For another assay, the system named is M17 cells. The experiment in a line: MPP+ toxicity in stably transfected cell lines, LDH release. To be noted: stable overexpression; MPP+ 0-10 mM; 24 hours. It counts as cell-based, human. The method, then:
as §1, with “Cell” for “M17 cell”, “MPP+” for “rotenone (0-25 μM)”, “24” for “48”, “well. Lines overexpressing 14-3-3θ (FIG. 9A), 14-3-3ε (FIG. 9B), or 14-3-3γ (FIG. 9C) were more resistant to MPP+ in a dose-dependent manner compared to control stable cells.” for “well.”, “experiment.” for “experiment. *p<0.05,”
The 14-3-3 expressing M17 clones were also tested for resistance to the neurotoxin 1-methyl-4-phenylpyridinium ion (MPP+), which is a metalbolite of 1-methyl-4-phenyl-1,2,3,6-tetrahydropyridine (MPTP). M17 cells expressing the 14-3-3 isoforms were prepared as described. M17 cells were treated with MPP+ (0-10 mM) for 24 hours (FIGS. 9A-G). Cell death was assayed by LDH release into the culture media as described above.
(§2) Primers against each of the human 14-3-3 isoforms were designed using Primer3. Primers against 14-3-3β (NM_018753) were 5′ […] 3′ (forward; SEQ ID NO. 9) and 5′ […] 3′ (reverse; SEQ ID NO. 10). Primers against 14-3-3ε (NM_009536) were 5′ […] 3′ (forward; SEQ ID NO. 11) and 5′ […] 3′ (reverse; SEQ ID NO. 12). Primers against 14-3-3γ (NM_018871) were 5′ […] 3′ (forward; SEQ ID NO. 13) and 5′ […] 3′ (reverse; SEQ ID NO. 14). Primers against 14-3-3η (NM_011738) were 5′ […] 3′ (forward; SEQ ID NO. 15) and 5′ […] 3′ (reverse; SEQ ID NO. 16). Primers against 14-3-3θ (NM_011739) were 5′ […] 3′ (forward; SEQ ID NO. 17) and 5′ […] 3′ (reverse; SEQ ID NO. 18). Primers against 14-3-3σ (NM_018754) were 5′ […] 3′ (forward; SEQ ID NO. 19) and 5′ […] 3′ (reverse; SEQ ID NO. 20). Primers against 14-3-3ζ(NM_011740) were 5′ […] 3′ (forward; SEQ ID NO. 21) and 5′ […] 3′ (reverse; SEQ ID NO. 22). Primers against GAPDH were 5′ tggtgaagcaggeatctga 3′ (forward; SEQ ID NO. 23) and 5′ […] 3′ (reverse; SEQ ID NO. 24) and were used to normalize PCR results. • α-syn aggregation assay H4 cells were transfected with synphilin, α-syn/green fluorescent protein (synT), and either empty vector control or a 14-3-3 isoform using Superfect transfection reagent (Qiagen). 24 hours after transfection, cells were fixed with 4% paraformaldehyde and immunostained with a monoclonal antibody against α-syn (BD Transduction) and a secondary Alexa 488-conjugated goat anti-mouse antibody (Molecular Probes). All cells stained for α-syn were scored as positive or negative for α-syn aggregates, with the rater blind to experimental condition. • α-syn toxicity assay H4 cells were transfected with α-syn and either empty vector control or a 14-3-3 isoform using Superfect transfection reagent (Qiagen). 24 hours after transfection, toxicity was measured by the amount of adenylate kinase released into the media using the ToxiLight™ kit (Cambrex). • Creation of stable cell lines Each 14-3-3 isoform was subcloned into the mammalian expression vector mcDNA3.1/V5-His (Invitrogen). BE(2)-M17 cells were transfected with each isoform or empty vector using Superfect, and stably-transfected cells were selected for in the presence of G418. […] Protein concentrations of supernatants were determined by the bicinchoninic acid assay (BCA; Pierce, Rockford, Ill.). […]

The test system of another assay is H4 cells. Briefly: α-syn toxicity assay, adenylate kinase released into the media. Conditions: co-transfected with wildtype α-syn; 24 hours after transfection; vs empty vector. It counts as cell-based. The protocol: Briefly, H4 cells were transfected with wildtype α-syn and each of the 14-3-3 polypeptide isoforms or empty vector controls as discussed above. Twenty-four hours after transfection, cell death was assayed by adenylate kinase activity in the media (n=4, *p<0.05, **p<0.01, ***p<0.001).
as §2, with “3′ (reverse; SEQ ID NO. 24) and were used to normalize PCR results. • α-syn aggregation assay H4 cells were transfected with synphilin, α-syn/green fluorescent protein (synT), and either empty vector control or a 14-3-3 isoform using Superfect transfection reagent (Qiagen). 24 hours after transfection, cells were fixed with 4% paraformaldehyde and immunostained with a monoclonal antibody against α-syn (BD Transduction) and a secondary Alexa 488-conjugated goat anti-mouse antibody (Molecular Probes).” left out, “(Invitrogen).” for “(Invitrogen). BE(2)-M17 cells were transfected with each isoform or empty vector using Superfect, and stably-transfected cells were selected for in the presence of G418.”

B1: 14-3-3β: 14-3-3 polypeptide β isoform, overexpressed from expression vector (protein, UniProt P31946 1-246, looked up)
14-3-3 protein beta/alpha: MTMDKSELVQKAKLAEQAERYDDMAAAMKAVTEQGHELSNEERNLLSVAYKNVVGARRSSWRVISSIEQKTERNEKKQQMGKEYREKIEAELQDICNDVLELLDKYLIPNATQPESKVFYLKMKGDYFRYLSEVASGDNKQTTVSNSQQAYQEAFEISKKEMQPTHPIRLGLALNFSVFYYEILNSPEKACSLAKTAFDEAIAELDTLNEESYKDSTLIMQLLRDNLTLWTSENQGDEGDAGEGEN
B1: the “rotenone-induced cell death, % of that in control cells” value in assay [1] (1 μM rotenone, LDH release) was 75%. The “protection against rotenone toxicity (LDH release)” value in assay [1] is on record as “some protection”. In addition, the “protection against MPP+ toxicity (LDH release)” value with M17 cells is recorded as “did not show any significant protection”.

B2: 14-3-3η: 14-3-3 polypeptide η isoform, overexpressed from expression vector (protein, UniProt Q04917 2-246, looked up)
14-3-3 protein eta: GDREQLLQRARLAEQAERYDDMASAMKAVTELNEPLSNEDRNLLSVAYKNVVGARRSSWRVISSIEQKTMADGNEKKLEKVKAYREKIEKELETVCNDVLSLLDKFLIKNCNDFQYESKVFYLKMKGDYYRYLAEVASGEKKNSVVEASEAAYKEAFEISKEQMQPTHPIRLGLALNFSVFYYEIQNAPEQACLLAKQAFDDAIAELDTLNEDSYKDSTLIMQLLRDNLTLWTSDQQDEEAGEGN
Regarding B2, the “protection against rotenone toxicity (LDH release)” value in assay [1] is “did not provide any protection”.

B3: 14-3-3σ: 14-3-3 polypeptide σ isoform, overexpressed from expression vector (protein, UniProt P31947 1-248, looked up)
14-3-3 protein sigma: MERASLIQKAKLAEQAERYEDMAAFMKGAVEKGEELSCEERNLLSVAYKNVVGGQRAAWRVLSSIEQKSNEEGSEEKGPEVREYREKVETELQGVCDTVLGLLDSHLIKEAGDAESRVFYLKMKGDYYRYLAEVATGDDKKRIIDSARSAYQEAMDISKKEMPPTNPIRLGLALNFSVFHYEIANSPEEAISLAKTTFDEAMADLHTLSEDSYKDSTLIMQLLRDNLTLWTADNAGEEGGEAPQEPQS
As to B3, in the assay with H4 cells, the “effect on α-syn dependent cell death (adenylate kinase activity in the media)” value is “protective effects”. Besides, the “protection against rotenone toxicity (LDH release)” value in assay [1] is on record as “did not provide any protection”.

(Values after patent publication US7919262B2, “14-3-3 proteins for diagnosis of Parkinson's disease” (The UAB Research Foundation, priority 2007, dated 2011).)
